# Laboratory results taken from the RNAGym collection of RNA variant scans (doi:10.1093/molbev/msab373).
# B1: Azoarcus group I ribozyme (parent)
# chain: GUGCCUUGCGCCGGGAAACCACGCAAGGGAUGGUGUCAAAUUCGGCGAAACCUAAGCGCCCGCCCGGGCGUAUGGCAACGCCGAGCCAAGCUUCGGCGCCUGCGCCGAUGAAGGUGUAGAGACUAGACGGCACCCACCUAAGGCAAACGCUAUGGUGAAGGCAUAGUCCAGGGAGUGGCGAAAGUCACACAAACCGG
# Variants of: B1
# Experiment: reverse-splicing fitness (ratio to wild type); higher = more active; in vitro selection; Mg2+ level not given
# Outline: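 An in vitro group I ribozyme library with randomized positions was T7-transcribed and gel-purified. In triplicate, 10 pmol RNA in EPPS pH 7.5 was reacted with 50 pmoles of a 30-nt RNA substrate for 1 h at 37 °C across several added MgCl2 levels (1–48 mM), then stopped with EDTA. Products were reverse transcribed from a substrate-complementary primer, PCR-amplified and sequenced (HiSeq 4000). Fitness is a variant's read proportion after selection over that before, normalised to wild type.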
row,Variant,reverse-splicing fitness
1,C82U A111U A120C C169G U176C,0.018
2,C82U A111U A120C C169G U176G,0.0049
3,C82U A111U A120C C169U,0.0117
4,C82U A111U A120C C169U U176A,0.0196
5,C82U A111U A120C C169U U176C,0.0164
6,C82U A111U A120C C169U U176G,0.00459
7,C82U A111U A120C U176A,0.0144
8,C82U A111U A120C U176C,0.0191
9,C82U A111U A120C U176G,0.00482
10,C82U A111U A120G,0.0168
11,C82U A111U A120G A145C,0.0134
12,C82U A111U A120G A145C C150A,0.0064
13,C82U A111U A120G A145C C150A C169A,0.00756
14,C82U A111U A120G A145C C150A C169A U176A,0.0108
15,C82U A111U A120G A145C C150A C169A U176C,0.0062
16,C82U A111U A120G A145C C150A C169A U176G,0.00517
17,C82U A111U A120G A145C C150A C169G,0.00785
18,C82U A111U A120G A145C C150A C169G U176A,0.0242
19,C82U A111U A120G A145C C150A C169G U176C,0.0136
20,C82U A111U A120G A145C C150A C169G U176G,0.00478
21,C82U A111U A120G A145C C150A C169U,0.00623

row,Variant,reverse-splicing fitness
1,C82U A111U A120G A145C C150A C169U U176A,0.0189
2,C82U A111U A120G A145C C150A C169U U176C,0.00977
3,C82U A111U A120G A145C C150A C169U U176G,0.00474
4,C82U A111U A120G A145C C150A U176A,0.00746
5,C82U A111U A120G A145C C150A U176C,0.00836
6,C82U A111U A120G A145C C150A U176G,0.00379
7,C82U A111U A120G A145C C150G,0.00668
8,C82U A111U A120G A145C C150G C169A,0.00779
9,C82U A111U A120G A145C C150G C169A U176A,0.00764
10,C82U A111U A120G A145C C150G C169A U176C,0.006
11,C82U A111U A120G A145C C150G C169A U176G,0.00478
12,C82U A111U A120G A145C C150G C169G,0.0068
13,C82U A111U A120G A145C C150G C169G U176A,0.00849
14,C82U A111U A120G A145C C150G C169G U176C,0.0069
15,C82U A111U A120G A145C C150G C169G U176G,0.00424
16,C82U A111U A120G A145C C150G C169U,0.00686
17,C82U A111U A120G A145C C150G C169U U176A,0.0142
18,C82U A111U A120G A145C C150G C169U U176C,0.0113
19,C82U A111U A120G A145C C150G C169U U176G,0.00495
20,C82U A111U A120G A145C C150G U176A,0.00493
21,C82U A111U A120G A145C C150G U176C,0.00719

row,Variant,reverse-splicing fitness
1,C82U A111U A120G A145C C150G U176G,0.0024
2,C82U A111U A120G A145C C150U,0.0086
3,C82U A111U A120G A145C C150U C169A,0.00726
4,C82U A111U A120G A145C C150U C169A U176A,0.0102
5,C82U A111U A120G A145C C150U C169A U176C,0.00544
6,C82U A111U A120G A145C C150U C169A U176G,0.00482
7,C82U A111U A120G A145C C150U C169G,0.00792
8,C82U A111U A120G A145C C150U C169G U176A,0.0216
9,C82U A111U A120G A145C C150U C169G U176C,0.0111
10,C82U A111U A120G A145C C150U C169G U176G,0.00484
11,C82U A111U A120G A145C C150U C169U,0.00734
12,C82U A111U A120G A145C C150U C169U U176A,0.0187
13,C82U A111U A120G A145C C150U C169U U176C,0.00897
14,C82U A111U A120G A145C C150U C169U U176G,0.00401
15,C82U A111U A120G A145C C150U U176A,0.00859
16,C82U A111U A120G A145C C150U U176C,0.00906
17,C82U A111U A120G A145C C150U U176G,0.00412
18,C82U A111U A120G A145C C169A,0.007
19,C82U A111U A120G A145C C169A U176A,0.00993
20,C82U A111U A120G A145C C169A U176C,0.00603
21,C82U A111U A120G A145C C169A U176G,0.00391

row,Variant,reverse-splicing fitness
1,C82U A111U A120G A145C C169G,0.00962
2,C82U A111U A120G A145C C169G U176A,0.0262
3,C82U A111U A120G A145C C169G U176C,0.0149
4,C82U A111U A120G A145C C169G U176G,0.004
5,C82U A111U A120G A145C C169U,0.00777
6,C82U A111U A120G A145C C169U U176A,0.0194
7,C82U A111U A120G A145C C169U U176C,0.0108
8,C82U A111U A120G A145C C169U U176G,0.00376
9,C82U A111U A120G A145C U176A,0.00965
10,C82U A111U A120G A145C U176C,0.00925
11,C82U A111U A120G A145C U176G,0.00374
12,C82U A111U A120G A145G,0.0162
13,C82U A111U A120G A145G C150A,0.00801
14,C82U A111U A120G A145G C150A C169A,0.0105
15,C82U A111U A120G A145G C150A C169A U176A,0.0153
16,C82U A111U A120G A145G C150A C169A U176C,0.02
17,C82U A111U A120G A145G C150A C169A U176G,0.00564
18,C82U A111U A120G A145G C150A C169G,0.00828
19,C82U A111U A120G A145G C150A C169G U176A,0.0152
20,C82U A111U A120G A145G C150A C169G U176C,0.0253
21,C82U A111U A120G A145G C150A C169G U176G,0.00481
